The values that follow are results of earlier work, collected in publication PMC11036797.

In general, Kd refers to the constant that tells how readily two partners part at equilibrium.

Some targets named below: FZD2 (Homo sapiens) (UniProt Q14332); FZD7 (Homo sapiens) (UniProt O75084); nectin-3 (Homo sapiens) (UniProt Q9NQS3); FZD1 (Homo sapiens) (UniProt Q9UP38); CSPG4 (Homo sapiens) (UniProt Q6UVK1).

Sequence of FZD1 (Homo sapiens) (Q9UP38 70-647): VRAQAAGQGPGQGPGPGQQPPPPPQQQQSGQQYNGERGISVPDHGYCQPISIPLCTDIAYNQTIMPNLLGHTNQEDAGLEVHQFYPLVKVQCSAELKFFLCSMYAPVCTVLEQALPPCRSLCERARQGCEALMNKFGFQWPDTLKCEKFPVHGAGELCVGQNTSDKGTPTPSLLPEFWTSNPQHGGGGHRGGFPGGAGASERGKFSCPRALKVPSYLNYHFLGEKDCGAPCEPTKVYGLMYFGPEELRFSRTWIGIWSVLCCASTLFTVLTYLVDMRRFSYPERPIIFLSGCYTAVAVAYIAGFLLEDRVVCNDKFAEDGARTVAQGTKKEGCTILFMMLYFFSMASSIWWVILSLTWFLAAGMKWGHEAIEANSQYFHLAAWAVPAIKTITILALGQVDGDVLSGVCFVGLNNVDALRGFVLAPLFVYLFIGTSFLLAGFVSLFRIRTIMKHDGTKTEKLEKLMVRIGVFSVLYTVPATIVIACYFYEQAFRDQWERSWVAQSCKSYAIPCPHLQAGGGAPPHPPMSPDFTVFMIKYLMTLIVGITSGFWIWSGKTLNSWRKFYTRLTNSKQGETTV
Sequence of FZD2 (Homo sapiens) (Q14332 24-565): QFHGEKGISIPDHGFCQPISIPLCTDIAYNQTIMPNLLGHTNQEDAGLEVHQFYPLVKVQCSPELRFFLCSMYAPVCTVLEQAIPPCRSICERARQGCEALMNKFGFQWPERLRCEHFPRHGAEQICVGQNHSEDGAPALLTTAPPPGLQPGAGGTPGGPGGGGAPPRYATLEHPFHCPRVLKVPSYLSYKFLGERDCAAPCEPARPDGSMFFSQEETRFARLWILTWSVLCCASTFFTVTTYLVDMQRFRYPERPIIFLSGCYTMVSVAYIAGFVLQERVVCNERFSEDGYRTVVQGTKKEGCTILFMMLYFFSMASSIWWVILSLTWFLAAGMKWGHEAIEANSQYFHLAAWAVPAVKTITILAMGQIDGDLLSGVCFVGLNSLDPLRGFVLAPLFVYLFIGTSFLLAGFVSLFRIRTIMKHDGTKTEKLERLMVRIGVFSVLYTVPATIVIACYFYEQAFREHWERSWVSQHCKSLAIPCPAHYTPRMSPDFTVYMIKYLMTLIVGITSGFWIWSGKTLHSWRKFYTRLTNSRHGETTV
Sequence of nectin-3 (Homo sapiens) (Q9NQS3 58-549): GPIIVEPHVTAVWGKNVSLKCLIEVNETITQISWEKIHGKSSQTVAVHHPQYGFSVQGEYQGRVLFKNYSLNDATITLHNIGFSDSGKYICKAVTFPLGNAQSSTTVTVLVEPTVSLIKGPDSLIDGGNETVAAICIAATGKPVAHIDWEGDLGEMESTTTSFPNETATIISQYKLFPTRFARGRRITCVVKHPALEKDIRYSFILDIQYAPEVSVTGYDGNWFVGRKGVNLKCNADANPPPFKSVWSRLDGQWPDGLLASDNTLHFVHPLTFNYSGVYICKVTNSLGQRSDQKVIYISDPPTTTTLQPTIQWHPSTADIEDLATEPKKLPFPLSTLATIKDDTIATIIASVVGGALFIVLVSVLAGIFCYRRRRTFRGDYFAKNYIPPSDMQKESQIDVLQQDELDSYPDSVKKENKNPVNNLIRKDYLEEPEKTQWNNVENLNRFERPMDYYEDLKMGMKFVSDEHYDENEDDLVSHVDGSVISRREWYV
Sequence of CSPG4 (Homo sapiens) (Q6UVK1 30-2322): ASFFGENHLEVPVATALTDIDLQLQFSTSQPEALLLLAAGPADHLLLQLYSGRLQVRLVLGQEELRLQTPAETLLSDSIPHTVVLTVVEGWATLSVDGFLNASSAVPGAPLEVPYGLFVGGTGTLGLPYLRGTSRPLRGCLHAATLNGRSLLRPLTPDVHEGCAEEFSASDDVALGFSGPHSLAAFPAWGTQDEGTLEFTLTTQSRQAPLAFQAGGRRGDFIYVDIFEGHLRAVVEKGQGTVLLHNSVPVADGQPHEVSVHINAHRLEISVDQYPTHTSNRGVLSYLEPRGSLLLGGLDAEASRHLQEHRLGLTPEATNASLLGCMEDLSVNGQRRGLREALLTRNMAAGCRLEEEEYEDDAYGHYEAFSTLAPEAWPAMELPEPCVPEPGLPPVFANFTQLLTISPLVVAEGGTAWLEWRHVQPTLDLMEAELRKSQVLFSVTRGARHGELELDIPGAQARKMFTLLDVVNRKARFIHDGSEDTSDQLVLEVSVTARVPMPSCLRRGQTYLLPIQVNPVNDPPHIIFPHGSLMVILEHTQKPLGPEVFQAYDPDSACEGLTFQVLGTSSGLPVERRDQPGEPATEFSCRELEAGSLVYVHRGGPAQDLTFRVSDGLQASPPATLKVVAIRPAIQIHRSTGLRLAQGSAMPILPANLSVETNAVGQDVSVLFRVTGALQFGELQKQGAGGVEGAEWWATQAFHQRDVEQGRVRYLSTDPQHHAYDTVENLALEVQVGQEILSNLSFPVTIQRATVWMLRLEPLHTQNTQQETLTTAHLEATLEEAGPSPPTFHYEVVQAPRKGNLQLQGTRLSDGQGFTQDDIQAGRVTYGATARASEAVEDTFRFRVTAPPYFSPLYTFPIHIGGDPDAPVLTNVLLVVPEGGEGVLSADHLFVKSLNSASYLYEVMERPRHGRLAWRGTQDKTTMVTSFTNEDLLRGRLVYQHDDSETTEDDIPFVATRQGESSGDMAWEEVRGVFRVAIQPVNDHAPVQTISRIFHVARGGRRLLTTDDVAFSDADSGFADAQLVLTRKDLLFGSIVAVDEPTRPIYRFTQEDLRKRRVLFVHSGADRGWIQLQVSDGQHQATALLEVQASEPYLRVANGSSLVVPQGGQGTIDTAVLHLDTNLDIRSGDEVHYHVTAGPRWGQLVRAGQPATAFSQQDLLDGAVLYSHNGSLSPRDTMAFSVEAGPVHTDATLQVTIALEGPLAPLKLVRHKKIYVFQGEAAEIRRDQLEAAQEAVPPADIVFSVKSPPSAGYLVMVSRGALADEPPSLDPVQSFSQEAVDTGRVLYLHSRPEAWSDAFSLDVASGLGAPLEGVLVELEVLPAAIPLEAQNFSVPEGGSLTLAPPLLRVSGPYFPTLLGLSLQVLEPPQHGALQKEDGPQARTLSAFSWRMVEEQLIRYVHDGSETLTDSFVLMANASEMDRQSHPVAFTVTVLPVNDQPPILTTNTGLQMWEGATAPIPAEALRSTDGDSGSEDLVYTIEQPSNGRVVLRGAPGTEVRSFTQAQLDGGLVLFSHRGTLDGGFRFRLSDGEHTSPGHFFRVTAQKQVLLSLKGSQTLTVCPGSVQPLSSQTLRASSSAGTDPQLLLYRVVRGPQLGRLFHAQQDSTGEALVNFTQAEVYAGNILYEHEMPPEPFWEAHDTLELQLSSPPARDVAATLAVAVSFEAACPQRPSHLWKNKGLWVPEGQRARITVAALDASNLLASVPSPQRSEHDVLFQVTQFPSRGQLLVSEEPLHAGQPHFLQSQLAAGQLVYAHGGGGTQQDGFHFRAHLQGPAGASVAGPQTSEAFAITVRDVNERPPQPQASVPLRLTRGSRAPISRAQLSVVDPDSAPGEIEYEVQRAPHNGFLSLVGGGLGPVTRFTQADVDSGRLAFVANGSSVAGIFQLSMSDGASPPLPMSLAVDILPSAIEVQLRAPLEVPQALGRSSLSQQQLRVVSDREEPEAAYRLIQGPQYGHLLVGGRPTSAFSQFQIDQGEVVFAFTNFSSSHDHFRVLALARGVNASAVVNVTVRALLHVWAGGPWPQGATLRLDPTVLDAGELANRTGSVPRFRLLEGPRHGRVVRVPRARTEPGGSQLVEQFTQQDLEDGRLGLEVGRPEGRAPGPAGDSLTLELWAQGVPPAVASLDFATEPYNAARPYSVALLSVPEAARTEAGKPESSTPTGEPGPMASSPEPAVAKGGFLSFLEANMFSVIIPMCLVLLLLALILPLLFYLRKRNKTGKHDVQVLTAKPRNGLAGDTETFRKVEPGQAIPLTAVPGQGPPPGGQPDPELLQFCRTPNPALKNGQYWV

Regarding TcdB1 (from UniProt P18177), the Kd was 19 nM with FZD2 (Homo sapiens); 27 nM with FZD7 (Homo sapiens); 53 nM with nectin-3 (Homo sapiens); 32 nM in the data set with FZD1 (Homo sapiens); 15.2 nM in the data set with CSPG4 (Homo sapiens).
